Drawing on article PMC3259531, this text covers stoichiometry N for one substance.

In the assay the target is Gdown1 (in vitro, construct not stated) (UniProt P0CAP2).

Sequence of Gdown1 (in vitro, construct not stated) (from UniProt P0CAP2-1 1-368) (natural protein) (P0CAP2 whole entry): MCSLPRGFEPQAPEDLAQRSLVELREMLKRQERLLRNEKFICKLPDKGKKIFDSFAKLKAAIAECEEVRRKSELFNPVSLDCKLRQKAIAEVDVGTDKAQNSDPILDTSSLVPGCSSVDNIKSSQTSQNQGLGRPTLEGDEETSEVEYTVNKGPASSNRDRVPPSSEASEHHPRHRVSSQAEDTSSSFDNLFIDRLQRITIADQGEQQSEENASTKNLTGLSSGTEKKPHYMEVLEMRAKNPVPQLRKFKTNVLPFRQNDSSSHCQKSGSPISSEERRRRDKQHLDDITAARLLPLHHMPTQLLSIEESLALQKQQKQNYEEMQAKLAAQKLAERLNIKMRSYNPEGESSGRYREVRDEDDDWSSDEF

As to “Gdown1 (in vitro, construct not stated) (from UniProt P0CAP2-1 1-368) (natural protein)”, the stoichiometry N worked out at 2.
